Measured values published in publication PMC3503981.

Biological target: PfUDN, N-terminal fragment of Plasmodium falciparum UvrD helicase (P. falciparum 3D7)

“PfMLH (P. falciparum MutL homologue) (natural protein)” gave a stimulation of the unwinding (helicase) activity of PfUDN (10 nM) on the 3′ to 5′ direction-specific substrate 3B by PfMLH (8 and 16 nM) pre-incubated with the substrate, against PfUDN alone of 22 to 36%.
